In US10501502B2, “Allophycocyanin alpha-subunit evolved labeling proteins (smURFPs)” (The Regents of the University of California, priority 2016, dated 2019):

Experiments:
[1] = In vitro photobleaching of bubbles of purified FP or Cy5 in mineral oil; type: physicochemical
Procedure: EX and EM spectra were obtained using SPEX Fluorolog fluorometer (Horiba). Absorbance spectra were obtained using UV-VIS Spectrophotometer Cary Eclipse (Varian) or UV-2700 (Shimadzu). Quantum yield was determined relative to Cy5. Incorporation rates of BV on 0.5 μM smURFP was performed by addition of smURFP to PBS alone or with 20% fetal bovine serum (FBS) and mixed by pipetting in a quartz cuvette. Chromophore was added last, mixed by pipetting, and fluorescence was recorded using SPEX Fluorolog fluorometer (Horiba). Photobleaching was characterized on bubbles of purified FP or Cy5 within mineral oil using light from a 150 W xenon arc lamp with 100% light through EX/EM=628(40)/680(30) nm for smURFP, TDsmURFP, and Cy5 or EX/EM=665 (45)/725 (50) nm for IFP 1.4 focused with a 40×, 1.2 numerical aperture C-Apochromat oil-immersion lens on a Zeiss Axiovert 200M inverted microscope. Photobleaching times were normalized to reflect an initial illumination intensity producing 1,000 photons per fluorescent molecule per second as previously described^37.

[2] = system: Escherichia coli; experiment: Fluorescence of FPs expressed in Escherichia coli; type: cell-based
Procedure: TeAPCα gene (codons optimized for Escherichia coli) was made by GenScript. Mutations were placed by random mutagenesis using GeneMorphII Random Mutagenesis Kit (Agilent Technologies). Screens for mutants that fluoresce with PCB or BV were performed by subcloning into a pBAD vector (Life Technologies) that expressed cyanobacteria Synechocystis HO-1 and Synechocystis PcyA genes for PCB production and Synechocystis HO-1 only for BV production, as previously described^34. Libraries were expressed in TOP 10 Electrocompetent Escherichia coli cells (Life Technologies) with addition of 0.2% arabinose to LB agar plates (FPs were constitutively expressed in Escherichia coli). Fluorescence was imaged on plates using a BioSpectrum AC Imaging System (UVP) with EX/EM=628(40)/690(50) nm for FPs+PCB, EX/EM=685(40)/710LP nm for rounds 4 and 5 FPs+BV, and EX/EM=650(13)/690(50) nm for Cy5-like FPs+BV (rounds 6-12). At round 6, 5-10 of the brightest colonies on each plate were combined in LB+0.2% arabinose, grown ˜18 h, mixture of plasmid DNA was purified, and TOP10 cells were transformed and plated on LB agar plates+0.2% arabinose. Fluorescence was screened on plates (as described above), 10-20 of the brightest colonies were screened in liquid culture fluorescence (FIG. 7a-e), plasmid DNA was purified, and DNA was sequenced. The plasmid DNA of 2-3 of the brightest FPs was chosen for mutagenesis for the subsequent round. When choosing DNA for subsequent mutagenesis rounds, genes with increased and/or novel silent DNA mutations were chosen over other DNA that had the same DNA and/or protein sequence of the previous round. Site-specific mutagenesis was performed using QuikChange Lightning Mutagenesis Kit (Agilent Technologies) to create smURFP (C4S mutation) and smURFP C52S.

B1: smURFP: small ultra-red fluorescent protein, SEQ ID NO: 13, homodimer, covalently attaches biliverdin (protein)
chain: MKTSEQRVNIATLLTENKKKIVDKASQDLWRRHPDLIAPGGIAFSQRDRALCLRDYGWFLHLITFCLLAGDKGPIESIGLISIREMYNSLGVPVPAMMESIRCLKEASLSLLDEEDANETAPYFDYIIKAMS
modifications: homodimer; biliverdin chromophore; smRUFP Variant Polypeptide
[1]; excitation intensity yielding 1,000 photons per s
  in vitro photobleaching t50%: 300 s
[1]; time to bleach 50% from an initial emission rate of 1,000 photons per s
  In vitro photostability t50%: 300 s
[2]
  fluorescence when expressed in E. coli (qualitative): greater than that of infrared FPs IFP1.4 and iRFP713
[2]; expressed in E. coli
  fold brighter than R1+PCB: ~650 fold
